{"source": "patent US6395306", "about": "(PAN PACIFIC PHARMACEUTICALS, dated 2002)", "binders": {"B1": {"name": "PX3.101 protein purified from honeybee venom (other)", "chain": "GGFGGFGGFGGLGGRGKCPSNEIFSRCDGRCQRFCPNVVPKPLCIKICAPGCVCRLGYLRNKKKVCVPRSKCG"}}, "target": "T1, CXCR2 (human, UniProt P25025 1-360)", "T1 sequence": "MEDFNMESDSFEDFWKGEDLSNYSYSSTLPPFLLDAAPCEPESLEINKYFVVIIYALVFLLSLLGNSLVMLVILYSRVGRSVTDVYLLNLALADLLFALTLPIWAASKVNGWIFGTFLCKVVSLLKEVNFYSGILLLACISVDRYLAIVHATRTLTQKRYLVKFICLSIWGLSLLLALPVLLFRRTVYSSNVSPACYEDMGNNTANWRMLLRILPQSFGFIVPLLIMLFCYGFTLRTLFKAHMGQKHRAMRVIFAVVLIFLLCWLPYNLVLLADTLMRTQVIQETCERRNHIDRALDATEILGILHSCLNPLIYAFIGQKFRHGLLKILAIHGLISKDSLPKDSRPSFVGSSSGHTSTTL"}
{"binder": "B1", "values": [{"measurement": "IC50", "value": 500, "unit": "nM"}]}
